# PMC8203622, “Tight docking of membranes before fusion represents a metastable state with unique properties” (Nature Communications, 2021)
# B1: synaptobrevin-2 fragment (49–96) (domain or fragment, Rattus norvegicus, UniProt P63045 49-96, looked up)
# chain: NVDKVLERDQKLSELDDRADALQAGASQFETSAAKLKRKYWWKNLKMM
# notes: synaptobrevin-2, Rattus norvegicus, residues 49-96; also called synaptobrevin fragment 49–96
# Target: T1, syntaxin-1A (183–288) (Rattus norvegicus, UniProt P32851 183-288)
# T1 construct: syntaxin-1A, Rattus norvegicus, residues 183-288
# Assay: assembly of a complex by mixing, isolated by ion exchange chromatography (MonoQ); purified proteins mixed overnight at 4 °C in a buffer containing CHAPS, then MonoQ
# Conditions: both partners purified
# T1 sequence (P32851 183-288): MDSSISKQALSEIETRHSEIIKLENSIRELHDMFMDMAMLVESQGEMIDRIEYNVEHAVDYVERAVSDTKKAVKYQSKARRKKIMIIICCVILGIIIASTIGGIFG
binder,measurement,value
B1,binding result,binds
